Experimental data: IntAct's records for PubMed 21621563

B1: Forkhead box protein O3 (Homo sapiens), O43524 (parent)
chain: MAEAPASPAPLSPLEVELDPEFEPQSRPRSCTWPLQRPELQASPAKPSGETAADSMIPEEEDDEDDEDGGGRAGSAMAIGGGGGSGTLGSGLLLEDSARVLAPGGQDPGSGPATAAGGLSGGTQALLQPQQPLPPPQPGAAGGSGQPRKCSSRRNAWGNLSYADLITRAIESSPDKRLTLSQIYEWMVRCVPYFKDKGDSNSSAGWKNSIRHNLSLHSRFMRVQNEGTGKSSWWIINPDGGKSGKAPRRRAVSMDNSNKYTKSRGRAAKKKAALQTAPESADDSPSQLSKWPGSPTSRSSDELDAWTDFRSRTNSNASTVSGRLSPIMASTELDEVQDDDAPLSPMLYSSSASLSPSVSKPCTVELPRLTDMAGTMNLNDGLTENLMDDLLDNITLPPSQPSPTGGLMQRSSSFPYTTKGSGLGSPTSSFNSTVFGPSSLNSLRQSPMQTIQENKPATFSSMSHYGNQTLQDLLTSDSLSHSDVMMTQSDPLMSQASTAVSAQNSRRNVMLRNDPMMSFAAQPNQGSLVNQNLLHHQHQTQGALGGSRALSNSVSNMGLSESSSLGSAKHQQQSPVSQSMQTLSDSLSGSSLYSTSANLPVMGHEKFPSDLDLDMFNGSLECDMESIIRSELMDADGLDFNFDSLISTQNVVGLNVGNFTGAKQASSQSWVPG

Assays:
[1] = variants of: B1; conditions: with 1433z_mouse Ywhaz
akt1_human AKT1, P31749 = variants of: B1; conditions: with akt1_human AKT1, P31749
Sequence of akt1_human AKT1, P31749 (P31749 whole entry): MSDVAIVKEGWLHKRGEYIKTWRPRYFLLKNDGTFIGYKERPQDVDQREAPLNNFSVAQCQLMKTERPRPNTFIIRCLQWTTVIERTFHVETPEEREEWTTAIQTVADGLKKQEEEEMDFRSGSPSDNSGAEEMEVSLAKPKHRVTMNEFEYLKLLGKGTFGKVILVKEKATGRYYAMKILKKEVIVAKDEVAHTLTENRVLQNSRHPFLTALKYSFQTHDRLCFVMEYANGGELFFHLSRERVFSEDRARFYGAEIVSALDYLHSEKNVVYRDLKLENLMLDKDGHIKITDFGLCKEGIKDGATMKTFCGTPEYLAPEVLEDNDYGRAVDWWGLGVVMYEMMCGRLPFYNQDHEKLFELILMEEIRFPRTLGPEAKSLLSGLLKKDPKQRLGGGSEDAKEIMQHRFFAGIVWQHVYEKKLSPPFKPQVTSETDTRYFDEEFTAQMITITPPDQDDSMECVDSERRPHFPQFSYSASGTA

Variant	effect of a mutation on the interaction [1]	effect of a mutation on the interaction (akt1_human AKT1, P31749)
R27L;R29L	disrupting interaction strength	with no effect
R27L;R29L;R248L;R250L	disrupting interaction strength	decreasing interaction strength

Further lines, results first:

effect of a mutation on the interaction [1]	effect of a mutation on the interaction (akt1_human AKT1, P31749)	Variant
disrupting interaction strength	decreasing interaction strength	R27L;R29L;R248L;R250L;R310L;R312L
decreasing interaction strength	with no effect	P34A
disrupting interaction strength	decreasing interaction strength	T32A;S253A;S315A
